The results in this text go back to patent publication US20220033501A1 (SHANGHAI PHARMAEXPLORER, published 2022).

Test [1] deals with T1, human TIM-3 extracellular domain protein with hFc tag (hTIM-3-hFc) (human, UniProt Q8TDQ0 22-200).
T1 construct: not shown: human IgG Fc fragment (hFc) of the pCpC vector
T1 sequence: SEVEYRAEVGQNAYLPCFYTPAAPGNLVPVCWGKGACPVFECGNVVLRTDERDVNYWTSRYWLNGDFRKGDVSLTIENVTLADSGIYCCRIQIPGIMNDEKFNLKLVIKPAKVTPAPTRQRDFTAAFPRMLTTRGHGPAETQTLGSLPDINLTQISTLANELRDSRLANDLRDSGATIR
As to the kind of experiment: ELISA, coated human TIM-3 ECD protein, 0 nM antibody. In general terms: In an ELISA, binding on a coated surface is turned into a signal by an enzyme label.

Test [2] has as its target T2, human TIM-3 on CHOK1 stable cell line (CHOK1-hTIM-3) (human, UniProt Q8TDQ0 22-301).
T2 sequence: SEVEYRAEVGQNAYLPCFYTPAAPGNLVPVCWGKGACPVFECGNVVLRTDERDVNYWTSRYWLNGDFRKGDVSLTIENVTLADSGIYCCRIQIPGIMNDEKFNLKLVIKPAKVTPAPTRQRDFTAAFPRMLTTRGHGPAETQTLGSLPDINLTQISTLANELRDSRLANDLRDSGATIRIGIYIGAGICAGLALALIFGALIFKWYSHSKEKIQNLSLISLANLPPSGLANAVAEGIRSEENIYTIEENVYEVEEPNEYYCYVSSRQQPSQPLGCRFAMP
As to the kind of experiment: FACS, CHOK1-hTIM-3 cells, 0.064 nM antibody.

Test [3] concerns the target T3, monkey TIM-3 on CHOK1 stable cell line (CHOK1-cTIM-3) (monkey).
T3 chain: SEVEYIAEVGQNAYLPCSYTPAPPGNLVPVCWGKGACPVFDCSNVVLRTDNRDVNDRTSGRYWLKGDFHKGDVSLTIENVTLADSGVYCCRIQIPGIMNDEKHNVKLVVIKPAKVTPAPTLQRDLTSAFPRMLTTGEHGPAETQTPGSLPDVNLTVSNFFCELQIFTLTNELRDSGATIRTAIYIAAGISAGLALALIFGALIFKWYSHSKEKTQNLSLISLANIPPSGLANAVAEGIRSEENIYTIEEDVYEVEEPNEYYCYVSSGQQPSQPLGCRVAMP
As to the kind of experiment: FACS, CHOK1-cTIM-3 cells, 0 nM antibody. (A flow cytometer gives signals particle by particle.)

Test [4] has as its target T1, human TIM-3 extracellular domain …. As to the kind of experiment: ELISA, coated human TIM-3 ECD protein, 0.0067 nM antibody.
Test [5] has as its target T4, human TIM-3 protein with hFc tag (hTIM-3-hFc protein) (human, UniProt Q8TDQ0 22-200).
T4 construct: also called immunogen 1; human TIM-3 extracellular domain protein; not shown: human IgG Fc fragment (hFc) of the pCpC vector
T4 sequence: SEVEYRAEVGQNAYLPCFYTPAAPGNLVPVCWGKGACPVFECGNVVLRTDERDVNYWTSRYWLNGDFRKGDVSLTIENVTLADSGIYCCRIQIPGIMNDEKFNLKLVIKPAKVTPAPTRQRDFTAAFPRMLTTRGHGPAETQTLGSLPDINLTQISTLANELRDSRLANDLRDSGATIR
Nature of the test: ELISA, coated hTIM-3-hFc; antibody 0 nM (blank). From the text:
(§1) The amino acid sequence 22-200 of the extracellular domain of the human TIM-3 protein described in the step of Example 1 (as shown in SEQ ID NO. 71 in the sequence listing) was cloned into a pCpC vector having a human IgG Fc fragment (hFc), and transfected into HEK293 cells. The cell culture medium was collected, and purified to obtain the human TIM-3 protein with hFc tag (herein referred to as hTIM-3-hFc protein). The amino acid sequence 22-201 of the extracellular domain of the monkey TIM-3 protein (as shown in SEQ ID NO. 72 in the sequence listing) was cloned into a pCpC vector having a human IgG Fc fragment (hFc), and transfected into HEK293 cells. The cell culture medium was collected, and purified to obtain the monkey TIM-3 protein with hFc tag (herein referred to as cTIM-3-hFc protein). […] The cell culture medium was collected, and purified to obtain the murine TIM-3 protein with hFc tag (herein referred to as mTIM-3-hFc protein). Purified human, monkey, and mouse TIM-3 extracellular domain proteins (hTIM-3-hFc, cTIM-3-hFc, and mTIM-3-hFc) were diluted with PBS to a final concentration of 1.0 μg/ml and then added to a 96-well ELISA plate with 100 μl per well. The plate was sealed with plastic film and incubated overnight at 4° C. The plate was washed 4 times with the plate washing solution (PBS+0.01% Tween20) on the next day, and added with the blocking solution (PBS+0.01% Tween20+1% BSA) and sealed at room temperature for 1-2 hours. The blocking solution was poured out. 50-100 μl of the antibody sample to be tested was added to each well. The plate was incubated at 37° C. for 1-2 hours, and washed 2-3 times with plate washing solution (PBS+0. 01% Tween20). HRP (horseradish peroxidase) labeled secondary antibody was added. The plate was incubated at 37° C. for 1-2 hours, and washed 2-3 times with plate washing solution (PBS+0. 01% Tween20). […] of TMB substrate was added to each well. After incubated at room temperature for 15-30 minutes, the plate was added with […] stop solution (1.0N HCl) to each well. An ELISA plate reader (TiterMax 384plus, Molecular Device) was used to read the A450 nm value.

Test [6] addresses T5, murine TIM-3 protein with hFc tag (mTIM-3-hFc protein) (mouse; human, UniProt Q8VIM0 29-191).
T5 construct: Made in HEK293 cells; also called mouse TIM-3 extracellular domain protein; not shown: human IgG Fc fragment (hFc) of the pCpC vector
T5 chain: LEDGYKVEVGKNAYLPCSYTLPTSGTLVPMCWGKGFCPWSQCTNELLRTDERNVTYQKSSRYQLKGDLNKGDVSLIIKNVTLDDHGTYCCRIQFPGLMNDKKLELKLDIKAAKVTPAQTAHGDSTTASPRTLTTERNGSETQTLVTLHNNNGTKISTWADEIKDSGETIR
As to the kind of experiment: ELISA, coated mTIM-3-hFc; antibody 6.6667 nM.
Excerpt: as §1

Test [7] has as its target T6, monkey TIM-3 protein with hFc tag (cTIM-3-hFc protein) (monkey; human).
T6 construct: Made in HEK293 cells; also called monkey TIM-3 extracellular domain protein; not shown: human IgG Fc fragment (hFc) of the pCpC vector
T6 chain: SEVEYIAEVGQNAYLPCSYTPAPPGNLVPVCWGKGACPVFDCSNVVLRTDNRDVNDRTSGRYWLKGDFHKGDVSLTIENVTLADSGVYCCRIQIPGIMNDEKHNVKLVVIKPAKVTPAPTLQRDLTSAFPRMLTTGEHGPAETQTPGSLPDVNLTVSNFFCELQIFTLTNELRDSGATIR
Nature of the test: ELISA, coated cTIM-3-hFc; antibody 0 nM (blank).
Excerpt: as §1

Test [8] addresses T5, murine TIM-3 protein with hFc tag …. Nature of the test: ELISA, coated mTIM-3-hFc; antibody 0.6667 nM.
Excerpt: as §1

B1: 215A8F2 fully human TIM-3 antibody (human IgG4, kappa) (antibody, V domains shown)
VH: QVQLQQWGAGLLKPSETLSLTCTVYGGSFSGYYWNWIRQPPGKGLEWLGEINHSGSTNYNPSLKRRVTISVDTSKNQFSLKLSSVTAADTAVYYCARVYYYGPFDFWGQGTLVTVSS
VL: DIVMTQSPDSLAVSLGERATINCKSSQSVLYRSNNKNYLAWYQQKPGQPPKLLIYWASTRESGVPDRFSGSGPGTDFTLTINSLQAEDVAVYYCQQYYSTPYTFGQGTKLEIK
As to B1, the OD450 in test [1] came to 0.08; in test [4] it was 0.27. The Mean fluorescence intensity in test [2] worked out at 20.5; in test [3] it was 2.8.

B2: 215A8F2 (TIM-3 antibody purified from hybridoma, chimeric antibody of Example 2) (antibody, V domains shown)
VH: QVQLQQWGAGLLKPSETLSLTCTVYGGSFSGYYWNWIRQPPGKGLEWLGEINHSGSTNYNPSLKRRVTISVDTSKNQFSLKLSSVTAADTAVYYCARVYYYGPFDFWGQGTLVTVSS
VL: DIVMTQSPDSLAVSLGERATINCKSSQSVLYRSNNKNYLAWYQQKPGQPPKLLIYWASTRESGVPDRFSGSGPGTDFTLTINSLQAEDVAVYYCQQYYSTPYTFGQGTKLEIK
notes: From hybridoma of Harbour H2L2 transgenic mice: human variable regions, rat constant regions
Consider B2, for which the OD450 in test [5] stood at 0.11; in test [6], 0.68; in test [7], 0.57; in test [8] it was 0.65.

B3: 57F4E5 fully human TIM-3 antibody (human IgG4, kappa) (antibody, V domains shown)
VH: EVQLVESGGGLVQPGGSLRLSCAASGFTFSSYWMSWVRQAPGKGLEWVANIKQDGSEKYYVDSVKGRFTISRDSAKNSLYLQMNSLRAEDTAMYFCARDSNFFDYWGQGTLVTVSS
VL: ETVMTQSPATLSVSPGERATLSCRASQSVSSNLAWYQRKPGQAPRLLIYFSSTRATGIPARFSGSGSGTEFTLTISSLQSEDFAVYYCQQYNNWPLTFGGGTKVEIK
For the molecule B3, the figures for the OD450 in test [1] and in test [4] were 0.08 and 0.23, respectively. Also, the values for the Mean fluorescence intensity in test [2] and in test [3] were 23.7 and 2.9, respectively.

B4: 134H3G6 fully human TIM-3 antibody (human IgG4, kappa) (antibody, V domains shown)
VH: EVQLVESGGGLVQPGGSLRLSCAASGFTFSNSWMTWVRQAPGKGLEWVANIKQAGTEKYYVDSVKGRFTISRDNAKNSLYLQMNSLRAEDTAVYYCNSGSNYFDYWGQGTLVTVSS
VL: EIVMTQSPATLSVSPGERATLSCRARQNFYSNLAWYQQKPGQAPRLLIYGASTRATGIPARFSGSGSGTEFTLTISSLQSEDFAVYYCQQYNNWPLTFGGGTKVEIK
Regarding B4, the OD450 in test [1] is 0.08; in test [4] it was 0.27. For the same molecule, the values for the Mean fluorescence intensity in test [2] and in test [3] were 34.5 and 2.9, respectively.

B5: 57F4E5 (TIM-3 antibody purified from hybridoma, chimeric antibody of Example 2) (antibody, V domains shown)
VH: EVQLVESGGGLVQPGGSLRLSCAASGFTFSSYWMSWVRQAPGKGLEWVANIKQDGSEKYYVDSVKGRFTISRDSAKNSLYLQMNSLRAEDTAMYFCARDSNFFDYWGQGTLVTVSS
VL: ETVMTQSPATLSVSPGERATLSCRASQSVSSNLAWYQRKPGQAPRLLIYFSSTRATGIPARFSGSGSGTEFTLTISSLQSEDFAVYYCQQYNNWPLTFGGGTKVEIK
notes: as for B2
In the case of B5, the OD450 in test [5] amounted to 0.12; in test [6], 0.69; in test [7] it was 0.56; in test [8], 0.64.

B6: 18D2H2 (TIM-3 antibody purified from hybridoma, chimeric antibody of Example 2) (antibody, V domains shown)
VH: EVQLVESGGDLVQPGGSLRLSCAASGFTFSTYWMTWVRQAPGRGLEWVANIKQDGSAKYYVDSVKGRFTLSRDDAKNSLYLQMNSLRAEDTAVYYCARGSNWFDYWGQGTLVTVSS
VL: ETVMTQSPATLSVSPGERATLSCRANQNVYSNLAWYQQKPGQAPRLLIYDASTRATGFPARFSGSGSGTEFTLTISSLQSEDFAVYYCQQYNNWPLTFGGGTKVEIK
notes: as for B2
Turning to B6, the OD450 in test [5] was 0.11; in test [6], 0.69; in test [7], 0.55; in test [8], 0.66.

B7: 134H3G6 (TIM-3 antibody purified from hybridoma, chimeric antibody of Example 2) (antibody, V domains shown)
VH: EVQLVESGGGLVQPGGSLRLSCAASGFTFSNSWMTWVRQAPGKGLEWVANIKQAGTEKYYVDSVKGRFTISRDNAKNSLYLQMNSLRAEDTAVYYCNSGSNYFDYWGQGTLVTVSS
VL: EIVMTQSPATLSVSPGERATLSCRARQNFYSNLAWYQQKPGQAPRLLIYGASTRATGIPARFSGSGSGTEFTLTISSLQSEDFAVYYCQQYNNWPLTFGGGTKVEIK
notes: as for B2
For B7, the OD450 is 0.12 in test [5], 0.67 in test [6], 0.55 in test [7] and 0.66 in test [8].

B8: 39E5H1 (TIM-3 antibody purified from hybridoma, chimeric antibody of Example 2) (antibody, V domains shown)
VH: EVQLVESGGGLVQPGGSLRLSCAASGFTFSSYWMSWVRQAPGKGLEWVANIKRGGSERYYVDSVKGRFTISGDNAKNSVYLQMNSLRAEDTAVYYCARGSNWFDPWGQGTLVTVSS
VL: ETVMTQSPAILSVSPGERATLSCRASQSVYSNLAWYQQKLGQAPRLLIYDASTRATGIPARFSGSGSGTEFTLTISSLQSEDFAVYYCQQYNNWPITFGQGTRLEIK
notes: as for B2
Turning to B8, the OD450 in test [5] was 0.12; in test [6] it was 0.68; in test [7], 0.59; in test [8], 0.66.

B9: 34B6D8 (TIM-3 antibody purified from hybridoma, chimeric antibody of Example 2) (antibody, V domains shown)
VH: EVQLVESGGGLVQPGGSLRLSCAASGFTFSTYWMTWVRQAPGKRLEWVANIKQGGGDKYYVDSVKGRFTISTDNAKNSLYLQMNSLRAEDTAVYYCARGSNWFDPWGQGTLVTVSS
VL: EIVMTQSPATLSMSPGERATLSCRASQSVYDNLAWYQQKPGQAPRLLIYGASTRATGIPARFSGSGSGTEFTLTISSLQSEDFALYYCQQYTHWPITFGQGTRLEIK
notes: as for B2
As for B9, the OD450 in test [5] is 0.12; in test [6], 0.74; in test [7], 0.58; in test [8] it was 0.65.

B10: 7A4F10 (TIM-3 antibody purified from hybridoma, chimeric antibody of Example 2) (antibody, V domains shown)
VH: EVQLLESGGGLVQPGGSLRLSCAASGFTFRTHLISWVRQAPGKGLEWVAAITGSGGSTYYADSVKGRFIISRDNSKNTLFLQMNSLRAEDTAVYYCAKDGGSGSYDDFWGQGTLVTVSS
VL: ETVLTQSPVTLSLSPGERATLSCRASQSVGSYLAWYQQKPGQAPRLLIYDASNRATGIPARFSGSGSGTDFTLTISSLEPEDFAVYYCQQRSNWPPTFGQGTKVEIK
notes: as for B2
With B10, the OD450 stood at 0.11 in test [5], 0.67 in test [6], 0.54 in test [7] and 0.67 in test [8].
